According to article PMC9151557:

Biological target: recombinant protein fibronectin-collagen peptide (FCP) (human)
Assay: SPR; OpenSPR (Nicoya); FCP fixed on an NTA sensor chip by capture coupling, integrin β3 injected sequentially; PBS running buffer, 25 °C; binding and dissociation 250 s each; regeneration with hydrochloric acid pH 2.0; one-to-one diffusion-corrected model, TraceDrawer (the discussion says integrin β3 was the captured one)

Sequence of integrin β3 (P05106 27-718): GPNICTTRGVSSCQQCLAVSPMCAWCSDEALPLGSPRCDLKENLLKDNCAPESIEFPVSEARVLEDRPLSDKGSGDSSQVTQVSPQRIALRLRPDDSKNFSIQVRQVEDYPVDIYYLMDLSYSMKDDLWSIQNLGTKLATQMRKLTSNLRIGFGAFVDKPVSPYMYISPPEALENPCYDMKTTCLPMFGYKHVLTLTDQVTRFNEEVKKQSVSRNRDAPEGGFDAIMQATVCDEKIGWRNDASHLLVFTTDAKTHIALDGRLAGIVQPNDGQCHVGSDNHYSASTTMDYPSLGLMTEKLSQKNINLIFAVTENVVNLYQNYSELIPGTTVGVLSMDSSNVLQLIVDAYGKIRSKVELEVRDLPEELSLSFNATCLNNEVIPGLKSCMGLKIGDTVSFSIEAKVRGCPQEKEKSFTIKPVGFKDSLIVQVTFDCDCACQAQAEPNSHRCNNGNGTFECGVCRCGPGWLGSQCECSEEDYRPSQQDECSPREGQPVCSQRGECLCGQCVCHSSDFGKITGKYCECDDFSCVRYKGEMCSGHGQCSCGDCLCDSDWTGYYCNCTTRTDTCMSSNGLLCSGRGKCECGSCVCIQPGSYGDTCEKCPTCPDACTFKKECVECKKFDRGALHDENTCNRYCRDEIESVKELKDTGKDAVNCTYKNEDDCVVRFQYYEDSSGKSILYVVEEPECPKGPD

Kd: 53.7 nM
Substance: integrin β3 (from UniProt P05106 27-718) (receptor)
